In this data set the target is lysozyme (UniProt P00698 19-147). Nature of the data set: electrochemical impedance spectroscopy (EIS); dense aptamer SAM (no MCH dilution), ferricyanide reporter; RCT change significant from 8 nM (LOD), up to 12%; 1x HBS, pH 7.4, redox reporter (ferricyanide or methylene blue) in solution; aptamer on gold electrode; temperature not stated. The note with it: protein: commercial.

The record followed here is paper PMC7218866, “Impact of Self-Assembled Monolayer Design and Electrochemical Factors on Impedance-Based Biosensing”.

Sequence of lysozyme (P00698 19-147): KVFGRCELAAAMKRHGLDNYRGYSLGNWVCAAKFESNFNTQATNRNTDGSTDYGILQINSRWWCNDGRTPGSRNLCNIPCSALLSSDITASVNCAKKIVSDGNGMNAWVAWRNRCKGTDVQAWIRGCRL

B1: lysozyme aptamer (thiolated) (ssDNA)
DNA: AGCAGCACAGAGGTCAGATGGCAGGTAAGCAGGCGGCTCACAAAACCATTCGCATGCGGC
modifications: 5' thiol-C6 (SH-C6), immobilized on gold in SAM
With B1, the binding result is listed as “binds”.
